Columns and labels:
[1] = molecular target: rTBL-1 R103Q mutant lectin (Phaseolus acutifolius); assay: SEC; ENrich SEC 650 column calibrated with gel filtration standard; 200 µL of sample at 10 mg/mL; 20 mM MES, 100 mM NaCl, pH 6.5; single peak at approximately 120 kDa
[2] = molecular target: rTBL-1 R130Q mutant lectin (Phaseolus acutifolius); assay: as above

| stoichiometry N [1] | stoichiometry N [2] | Substance |
| --- | --- | --- |
| 4 |  | rTBL-1 R103Q mutant lectin (natural protein) |
|  | 4 | rTBL-1 R130Q mutant lectin (natural protein) |
